Measured values published in US20110263436A1.
Positions count from the first letter of the chain named.

Key:
[1] = molecular target: wildtype HCV core 27-39 fragment (…) (Hepatitis C virus); assay: flow cytometry titration on yeast displaying the core 27-39 fragment (apparent KD)
[2] = molecular target: HCV NS3 fragment 1190-1216 (…) (Hepatitis C virus); assay: flow cytometry titration on yeast displaying the NS3 1190-1216 fragment
[3] = molecular target: HCV NS4 fragment 1692-1713 (…) (Hepatitis C virus); assay: flow cytometry titration on yeast displaying the NS4 1692-1713 fragment

B1: anti-HCV core chimeric antibody (HCV core 201-603-486-333) (antibody, V domains shown)
VH: QIQLVQSGPELQKPGKTVKISCKTSGYTFTDYPMHWVKQAPGKGLKWMGWINTETGEPTRVDDFKGRFAFSLETSASTAYLQINNLKDEDTATYFCARGGGVRRQVMDYWGQGTSVTVSS
VL: DIVMSQSPSSLAVSAGEKVTMSCKSSQSLLNSRTRKNYLVWYQQKPGQSPKLLIYWASTRDSGVPDRFTGSGSGTDFTLTISSVQAEDLAVYYCKQSYNLYTFGGGTKLEIKR
Kd [1]: 0.7 nM

B2: anti-HCV NS3 chimeric antibody (HCV NS3 CHO 17-903-132sc171) (antibody, V domains shown)
VH: EVKLVESGGGLVQPGGSLKLSCATSGFTFSDYYMYWVRQTPEKRLEWAAYISNGAGSTYYPDTVKGRFTISRDNAKNTLYLQMSRLKSEDTAMYYCARGLWDGLDYWGQGTTLTVSS
VL: DVVMAQTPLSLPVSLGDQASISCRSSQSLVHSNGNTYLHWYLQRPGQSPKLLIYKVSNRFSGVPDRFSGSGSGTDFTLKISRVEAEDLGVYFCSQSTHVPYTFGGGTKLEIKR
Kd [2]: 68 nM

B3: anti-HCV NS4 chimeric antibody (HCV NS4 CHO E99H6C34sc203) (antibody, V domains shown)
VH: QIQLVQSGPELKKPGETVKISCKASGYTFTDYSMHWVNQAPGKGLKWMGWINTETGEPTYADDFKGRFAFSLETSASTAYLQINNLKNEDTATYFCTRGGTGYWGQGTTLTVSS
VL: B2 VL with A5T, H31Y, R44K, Y101W
Kd [3]: 0.5 nM
